The data set “SEC-MALS” deals with the molecule itself. In words: SEC-MALS. (SEC sorts molecules by how far they enter the pores of the column.)
The data set “SEC” concerns the molecule itself. In words: SEC.
Data set [1] addresses T1, IFIT1 wild-type (human, UniProt P09914 1-478).
T1 sequence: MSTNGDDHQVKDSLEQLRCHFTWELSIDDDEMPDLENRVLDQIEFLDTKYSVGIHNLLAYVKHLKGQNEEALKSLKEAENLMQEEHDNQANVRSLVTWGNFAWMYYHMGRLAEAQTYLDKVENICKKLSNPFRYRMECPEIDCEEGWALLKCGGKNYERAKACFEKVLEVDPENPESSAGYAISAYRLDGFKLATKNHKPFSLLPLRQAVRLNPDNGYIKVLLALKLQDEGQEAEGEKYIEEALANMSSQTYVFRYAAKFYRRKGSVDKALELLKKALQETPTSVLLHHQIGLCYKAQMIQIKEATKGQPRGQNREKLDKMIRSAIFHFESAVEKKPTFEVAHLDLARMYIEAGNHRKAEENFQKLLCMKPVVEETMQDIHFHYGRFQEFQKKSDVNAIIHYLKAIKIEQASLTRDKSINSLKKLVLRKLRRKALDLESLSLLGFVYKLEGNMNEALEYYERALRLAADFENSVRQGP
In words: X-ray crystallography.

Data set [2] has as its target T1, IFIT1 wild-type. In words: X-ray crystallography. The source holds these as a separate data set.
Data set [3] addresses T1, IFIT1 wild-type. In words: limited proteolysis.

B1: human IFIT1, wild-type, full-length (residues 1-478) (natural protein, UniProt P09914 1-478, looked up)
chain: MSTNGDDHQVKDSLEQLRCHFTWELSIDDDEMPDLENRVLDQIEFLDTKYSVGIHNLLAYVKHLKGQNEEALKSLKEAENLMQEEHDNQANVRSLVTWGNFAWMYYHMGRLAEAQTYLDKVENICKKLSNPFRYRMECPEIDCEEGWALLKCGGKNYERAKACFEKVLEVDPENPESSAGYAISAYRLDGFKLATKNHKPFSLLPLRQAVRLNPDNGYIKVLLALKLQDEGQEAEGEKYIEEALANMSSQTYVFRYAAKFYRRKGSVDKALELLKKALQETPTSVLLHHQIGLCYKAQMIQIKEATKGQPRGQNREKLDKMIRSAIFHFESAVEKKPTFEVAHLDLARMYIEAGNHRKAEENFQKLLCMKPVVEETMQDIHFHYGRFQEFQKKSDVNAIIHYLKAIKIEQASLTRDKSINSLKKLVLRKLRRKALDLESLSLLGFVYKLEGNMNEALEYYERALRLAADFENSVRQGP
As a reminder, the stoichiometry N is a count of units in the complex or per binding partner. On to B1, for which the “stoichiometry N” value in the data set “SEC-MALS” came to 2.

B2: human IFIT1 K448E (natural protein, UniProt P09914 1-478, looked up)
chain: MSTNGDDHQVKDSLEQLRCHFTWELSIDDDEMPDLENRVLDQIEFLDTKYSVGIHNLLAYVKHLKGQNEEALKSLKEAENLMQEEHDNQANVRSLVTWGNFAWMYYHMGRLAEAQTYLDKVENICKKLSNPFRYRMECPEIDCEEGWALLKCGGKNYERAKACFEKVLEVDPENPESSAGYAISAYRLDGFKLATKNHKPFSLLPLRQAVRLNPDNGYIKVLLALKLQDEGQEAEGEKYIEEALANMSSQTYVFRYAAKFYRRKGSVDKALELLKKALQETPTSVLLHHQIGLCYKAQMIQIKEATKGQPRGQNREKLDKMIRSAIFHFESAVEKKPTFEVAHLDLARMYIEAGNHRKAEENFQKLLCMKPVVEETMQDIHFHYGRFQEFQKKSDVNAIIHYLKAIKIEQASLTRDKSINSLKKLVLRKLRRKALDLESLSLLGFVYELEGNMNEALEYYERALRLAADFENSVRQGP
Consider B2, for which the binding result in the data set “SEC” is reported as “binds”.

B3: IFIT2 (natural protein, UniProt P09913 1-472, looked up)
chain: MSENNKNSLESSLRQLKCHFTWNLMEGENSLDDFEDKVFYRTEFQNREFKATMCNLLAYLKHLKGQNEAALECLRKAEELIQQEHADQAEIRSLVTWGNYAWVYYHMGRLSDVQIYVDKVKHVCEKFSSPYRIESPELDCEEGWTRLKCGGNQNERAKVCFEKALEKKPKNPEFTSGLAIASYRLDNWPPSQNAIDPLRQAIRLNPDNQYLKVLLALKLHKMREEGEEEGEGEKLVEEALEKAPGVTDVLRSAAKFYRRKDEPDKAIELLKKALEYIPNNAYLHCQIGCCYRAKVFQVMNLRENGMYGKRKLLELIGHAVAHLKKADEANDNLFRVCSILASLHALADQYEDAEYYFQKEFSKELTPVAKQLLHLRYGNFQLYQMKCEDKAIHHFIEGVKINQKSREKEKMKDKLQKIAKMRLSKNGADSEALHVLAFLQELNEKMQQADEDSERGLESGSLIPSASSWNGE
With B3, the “stoichiometry N” value in the data set “SEC” is 2.

B4: PPP-oligoA (PPP-AAAA) (ssRNA)
RNA: AAAA
modifications: 5' triphosphate
As to B4, the binding result with IFIT1 wild-type [1] is “binds”.

B5: IFIT5-IFIT1 chimera (IFIT5^i1TPR9): human IFIT5 α1-α21 (residues 1-435) and human IFIT1 α22-α23 (TPR9, residues 437-478) (other, UniProt Q13325 1-435, looked up)
chain: MSEIRKDTLKAILLELECHFTWNLLKEDIDLFEVEDTIGQQLEFLTTKSRLALYNLLAYVKHLKGQNKDALECLEQAEEIIQQEHSDKEEVRSLVTWGNYAWVYYHMDQLEEAQKYTGKIGNVCKKLSSPSNYKLECPETDCEKGWALLKFGGKYYQKAKAAFEKALEVEPDNPEFNIGYAITVYRLDDSDREGSVKSFSLGPLRKAVTLNPDNSYIKVFLALKLQDVHAEAEGEKYIEEILDQISSQPYVLRYAAKFYRRKNSWNKALELLKKALEVTPTSSFLHHQMGLCYRAQMIQIKKATHNRPKGKDKLKVDELISSAIFHFKAAMERDSMFAFAYTDLANMYAEGGQYSNAEDIFRKALRLENITDDHKHQIHYHYGRFQEFHRKSENTAIHHYLEALKVKDRSPLRTKLTSALKKLSTKRLCHNALDVLESLSLLGFVYKLEGNMNEALEYYERALRLAADFENSVRQGP
Consider B5, for which the “stoichiometry N” value in the data set “SEC” came out at 2.

B6: m7Gppp-oligoA (m7Gppp-AAAA) (ssRNA)
RNA: AAAA
modifications: 5' m7Gppp cap (cap G not in strand)
As to B6, the binding result with IFIT1 wild-type [2] was “binds”.

B7: Gppp-oligoA (Gppp-AAAA) (ssRNA)
RNA: AAAA
modifications: 5' Gppp cap (cap G not in strand)
As for B7, the binding result with IFIT1 wild-type [3] was “binds”.

The record behind these values is publication doi:10.1101/152850 (bioRxiv, 2017).
